The target of the test is unmutated common ancestor of the AB-3467 clonal lineage, expressed as human IgG1 (human V(D)J (Ig-humanized TRIANNI mouse)). Kind of test: BLI. (BLI is a label-free optical method that tracks binding on a fibre tip over time.)

pKd: −log10 of the molar value.

One may read the pKd as the Kd on a negative log10 scale, so that one unit is a factor of ten. Read a low pKd as a large Kd.

For the substance “SARS-CoV-2 receptor-binding domain (from UniProt P0DTC2 333-528) (domain or fragment)”, the negative logarithm of the Kd (pKd) was 6.30.

For the origin of these results see article PMC8554075.
